Measured values as given in patent US8598081B2, “Specific delivery of agrochemicals” (priority 2010, dated 2013).

B1: VHH 3E6: VHH binding gum arabic, potato lectin and leaf surface; SEQ ID NO:7 by order of the list (protein, listed as Lama glama)
VHH: QVQLQESGGGLVQPGGTLSLSCAASGFNVRWYGMGWFRQAPGKEREGVACISALQETTAYADSVKGRFTLSRDNPKNTLSLQMNNLQPEDTGVYYCATTDCDDSSRMTYTSYLGQGTQVTVSS
modifications: 3E6
B2: Microcapsules containing uvitex OB VHH 3E6: polyurea microcapsules containing the fluorescent tracer Uvitex OB, coupled with (monovalent) VHH 3E6 (conjugate)
VHH: B1 VHH
modifications: left off: small tags and cut ends
notes: polyurea microcapsules containing the fluorescent tracer Uvitex OB, coupled with (monovalent) VHH 3E6

Columns and labels:
[1] = system: intact living potato pot plants; experiment: VHH binding to intact living plants; parameters: species or system potato (variety Desiree); settings: in PBS; 1 hour; FIG. 2: 5 μg/ml
Method: Binding of VHH to intact living plants was investigated on potato pot plants (variety Desiree). Compound leaves of intact living plants were submersed in solutions of hexahistidine-tagged VHH in PBS, or PBS alone for control conditions, leaving the compound leaves attached to the plants. VHH were allowed to bind for 1 hour. Next, the compound leaves still attached to the plants were washed five times in PBS in Erlenmeyer flasks. Different leaves and petiole sections were sampled. Bound VHH were detected by incubation with monoclonal mouse anti-histidine antibodies directly conjugated with Alexa-488 fluorescent dye (Abd Serotec) in PBS for 1 hour. Unbound anti-histidine antibodies were removed by washing five times with PBS. Whole leaves, leaf discs, or petiole sections were analyzed for bound VHH with microscopy.

[2] = system: gum arabic or potato lectin; experiment: Lambda cyhalothrin amount in wells with bound microcapsules, GC/MS-MS; format: binding; settings: VHH coupled to lambda cyhalothrin microcapsules
Method: An ELISA-like assay setup was used to evaluate the interaction of VHH-coupled microcapsules to antigen-containing surfaces. ELISA plates (Maxisorp (Thermo Scientific Nunc) or high bind half area microplates (Greiner Bio-One)) were coated with gum arabic or potato lectin. Coatings were performed overnight with 100 μg/ml gum arabic or potato lectin in PBS. Control wells included blank wells or wells coated with unrelated antigens. Plates were washed three times with PBS with 0.05%-TWEEN®-20 and blocked with 5% skimmed milk in PBS for 1 to 2 hours. VHH-coupled lambda cyhalothrin-containing or Uvitex-containing microcapsules were diluted to appropriate densities in 1% skimmed milk in PBS with 0.05%-TWEEN®-20. Microcapsules were added to the antigen-coated or control wells and allowed to bind for 1 hour. Unbound microcapsules were removed by washing five times with PBS with 0.05%-TWEEN®-20. The bottoms of ELISA plate wells were analyzed for bound microcapsules on a macrozoom microscope system (Nikon). Microcapsules were counted using Volocity image analysis software (Perkin Elmer). A DAPI filter was used to visualize Uvitex microcapsules. […]
In another experiment, lambda cyhalothrin amounts were also determined analytically. […] The amount of lambda cyhalothrin was determined by GC/MS-MS analysis in comparison with calibration solutions. […]

[3] = ELISA-like assay of VHH-coupled microcapsules, unrelated antigen-coated wells; format: binding; settings: uvitex OB microcapsules
Method: Polyurea microcapsules were produced by interfacial polymerization. With the objective to generate functionalized polyurea microcapsules, VHH were coupled to microcapsules containing either the insecticide lambda cyhalothrin or the fluorescent tracer molecule Uvitex OB and a shell with incorporated lysine to surface-expose carboxylic acid residues. Lambda cyhalothrin was dissolved in benzyl benzoate in concentrations between 30% and 66% before encapsulation. Alternatively, a core of 1.5% Uvitex in benzyl benzoate was used for easy fluorescent visualization of microcapsules. Toluene diisocyanate (TDI) and polymethylenepolyphenylene isocyanate (PMPPI) were dissolved in the oil phase in different ratios and concentrations in the oil phase to produce desired shell characteristics. Stirring speed for the emulsion was varied to control droplet size and consequently microcapsule diameter. Microcapsules with approximate diameters of 5 μm, 10 μm, or 50 μm were successfully produced. Bifunctional lysine and trifunctional diethylene triamine (DETA) were used in different ratios and/or added sequentially during encapsulation to on the one hand maximize amounts of carboxylic acids on the microcapsules' surface and on the other hand obtain sufficient strength of capsule shells. Microcapsules were washed with water after production and stored as microcapsule suspensions in water. The microcapsules were washed with 100 mM MES, 500 mM NaCl, pH 6.0 immediately before coupling of VHH using a vacuum-tight filter flask and P 1.6 filter funnel (Duran). Alternatively, glass filter holders with 0.45 μm disposable membrane filters (Millipore) or 0.45 μm 96-well deep-well filtration plates (Millipore) were used. Couplings of VHH to microcapsules were performed using carbodiimide-mediated couplings using a one-step procedure, a two-step procedure without N-hydroxysuccinimide (NHS), or a two-step procedure with NHS. The major difference between one-step coupling and two-step coupling procedures is the occurrence of cross-linking of VHH in one-step coupling procedures. The protocols for the three procedures are largely similar and differ as follows. For one-step couplings VHH were added to washed microcapsules and 1-Ethyl-3-[3-dimethylaminopropyl]carbodiimide Hydrochloride (EDC) (Pierce) was added and coupling reaction was allowed for 2 hours at room temperature. For two-step couplings washed microcapsules were first activated with EDC in the presence or absence of NHS. Excess unreacted EDC (and NHS) were removed by quick sequential washes with ice-cold buffers and VHH were added and allowed to react with activated carboxylic acids on microcapsule shells. For ø 10 μm microcapsules 2-20 μg VHH were coupled per mg microcapsules. […]

Molecule | binding to intact living plant (leaves attached to potato pot plant submerged in VHH solution) [1] | increase of amounts of lambda cyhalothrin in wells coated with antigen compared to blank microcapsules [2] [fold] | increase of amounts of lambda cyhalothrin over blank wells not coated with antigen [2] [fold] | Area of bound microcapsules ([3]; no coating (second series, with unrelated antigen rows), surface coverage 100%) | Area of bound microcapsules ([3]; unrelated antigen, surface coverage 4%) | Area of bound microcapsules ([3]; unrelated antigen, surface coverage 20%) | Area of bound microcapsules ([3]; unrelated antigen, surface coverage 100%)
B1 | binding leaf surface, stomata, glandular trichomes, and leaf hairs | 23 | 27 |  |  |  | 
B2 |  |  |  | 68.181 | 23.525 | 47.906 | 84.508
